Kd data for 60 molecules are collected here from patent publication US20030236190A1 (published 2003).

Starred links: 1 amine or outer side, 2 acyl side, 3 side chain; linkers in the order of their positions; H or OH if unused. Positions of bridges follow the written chain, without caps; N, C: chain ends. Non-standard residues stand in square brackets, D forms with d. Primed or numbered codes have the meaning given here. Chains are numbered I, II in the order given. No end group written: not given here. Lig′ = lysine with a 2-aminohydroxyacetyl group (CO-CH2-O-NH2) on the side-chain amino group, O=C(CON[*:3])NCCCC[C@H](N[*:1])C(=O)[*:2]; Hyp = O=C(O)[C@@H]1C[C@@H](O)CN1; Tic = O=C(O)[C@@H]1Cc2ccccc2CN1; Cha = N[C@@H](CC1CCCCC1)C(=O)O; linker 14 = not defined here; Ac6c = NC1(C(=O)O)CCCCC1; Aic′ = not defined here; Aib = CC(C)(N)C(=O)O

B1: S362 (peptide)
peptide 1: XGSLDESFYDWFERQLGKK
peptide 2: XGSLDESFYDWFERQLGKK
modifications: N-terminal Lig′ coupled to linker 24
notes: dimer, N-N
B2: S229 (peptide)
peptide 1: SDGFYNAIELLSX
peptide 2: KHLCVLEELFWGASLFGYCSGKKX
modifications: not fully specified; C-terminal Lig′ coupled to linker 12
notes: heterodimer F2-F4, C-C
B3: S352 (peptide)
peptide 1: XGGGFHENFYDWFVRQVSKK
peptide 2: XGGGFHENFYDWFVRQVSKK
modifications: N-terminal Lig′ coupled to linker 21
notes: dimer, N-N
B4: S333 (peptide)
peptide 1: XGSLDESFYDWFERQLGKK
peptide 2: XGSLDESFYDWFERQLGKK
modifications: N-terminal Lig′ coupled to linker 22
notes: dimer, N-N
B5: S325 (peptide)
peptide 1: XGSLDESFYDWFERQLGKK
peptide 2: XGSLDESFYDWFERQLGKK
modifications: N-terminal Lig′ coupled to linker 9
notes: dimer, N-N
B6: S218 (peptide)
peptide 1: AFYDWFAKK[Lig′]
peptide 2: AFYDWFAKK[Lig′]
modifications: linker I:10-II:10 via linker 14; not fully specified; reading uncertain
notes: dimer, C-C
B7: S255 (peptide)
peptide 1: SDGFYNAIELLSGGGX
peptide 2: SDGFYNAIELLSGGGX
modifications: not fully specified; C-terminal Lig′ coupled to linker 14
notes: dimer, C-C
B8: S359 (peptide)
peptide 1: XDWLQRNANFYDWFVAEL
peptide 2: XDWLQRNANFYDWFVAEL
modifications: N-terminal Lig′ coupled to linker 9
notes: dimer, N-N
B9: S334 (peptide)
peptide 1: XGGGFHENFYDWFVRQVSKK
peptide 2: XGGGFHENFYDWFVRQVSKK
modifications: N-terminal Lig′ coupled to linker 22
notes: dimer, N-N
B10: S301 (peptide)
peptide 1: XDWLQRNANFYDWFVAEL
peptide 2: XDWLQRNANFYDWFVAEL
modifications: N-terminal Lig′ coupled to linker 14
notes: dimer, N-N
B11: S360 (peptide)
peptide 1: XDWLQRNANFYDWFVAEL
peptide 2: XDWLQRNANFYDWFVAEL
modifications: N-terminal Lig′ coupled to linker 23
notes: dimer, N-N
B12: S292 (peptide)
peptide 1: XGGGFHENFYDWFVRQVSKK
peptide 2: XGGGFHENFYDWFVRQVSKK
modifications: not fully specified; N-terminal Lig′ coupled to linker 12
notes: dimer, N-N
B13: S329 (peptide)
peptide 1: XFHENFYDWFVRQVSKK
peptide 2: XFHENFYDWFVRQVSKK
modifications: N-terminal Lig′ coupled to linker 17
notes: dimer, N-N
B14: S361 (peptide)
peptide 1: GSLDESFYDWFERQLGKKX
peptide 2: GSLDESFYDWFERQLGKKX
modifications: C-terminal Lig′ coupled to linker 24
notes: dimer, C-C
B15: S293 (peptide)
peptide 1: XGGGFHENFYDWFVRQVSKK
peptide 2: XGGGFHENFYDWFVRQVSKK
modifications: not fully specified; N-terminal Lig′ coupled to linker 13
notes: dimer, N-N
B16: S233 (peptide)
peptide 1: FHENFYDWFVRQVSKKX
peptide 2: SDGFYNAIELLSX
modifications: not fully specified; C-terminal Lig′ coupled to linker 14
notes: heterodimer F1-F2, C-C
B17: S350 (peptide)
peptide 1: GSLDESFYDWFERQLGKKX
peptide 2: GSLDESFYDWFERQLGKKX
modifications: not fully specified; C-terminal Lig coupled to linker 21
notes: dimer, C-C
B18: S231 (peptide)
peptide 1: FHENFYDWFVRQVSKKGGGX
peptide 2: FHENFYDWFVRQVSKKGGGX
modifications: not fully specified; C-terminal Lig′ coupled to linker 14
notes: dimer, C-C
B19: S290 (peptide)
peptide 1: XGGGFHENFYDWFVRQVSKK
peptide 2: XGGGFHENFYDWFVRQVSKK
modifications: not fully specified; N-terminal Lig′ coupled to linker 7
notes: dimer, N-N
B20: S335 (peptide)
peptide 1: GSLDESFYDWFERQLGKKX
peptide 2: GSLDESFYDWFERQLGKKX
modifications: not fully specified; C-terminal Lig coupled to linker 22
notes: dimer, C-C
B21: S354 (peptide)
peptide 1: XGSLDESFYDWFERQLGKK
peptide 2: XGSLDESFYDWFERQLGKK
modifications: N-terminal Lig′ coupled to linker 14
notes: dimer, N-N

This assay has as its target T1, human insulin receptor (HIR) (human, UniProt P06213 28-1382, limits assumed).
T1 construct: Detergent-solubilised receptor; The natural receptor is an alpha2-beta2 heterotetramer cleaved from one precursor
As to the kind of experiment: 125I-insulin displacement, solubilised HIR.
The Kd is the constant that tells how readily two partners part at equilibrium. High values mean weaker binding, low ones tighter binding. As to B1, binding was characterised by a dissociation constant (Kd) of 110 nM.

Consider RD[Hyp]FYDWFDD[dI] (printed: RD-Hyp-FYDWFDDi) [S268], for which binding was put at a Kd of 450 nM. NFYDWFVAELG [S243] displayed a Kd of 2000 nM. This Kd lies about 4.4-fold higher than the previous one. Then KHLCVLEELFWGASLFGYCSGKK [S331], with 1600 nM. As for IQGWEPFYGWFDDVVAQMFEE [S264], the figure is 190 nM. The molecule B2 yielded a Kd of 44 nM. Compared with the last molecule, the Kd is about 4.3-fold lower. As for B3, the figure is 660 nM; as for B4, 140 nM; as for B5, 46 nM. The molecule GGSFYDD[Ac6c]E[Aib]LW[Aib]G (printed: GGSFYDD-Acy-E-Aib-LW-Aib-G) [S304] gave a Kd of 21000 nM. WLEHEWAQIQCELYGRGCTY [S285] showed a Kd of 830 nM. Then B6, with 11000 nM. Molecule DLRVLCELFGGAYVLGYCSE [S281] yielded a Kd of 11000 nM. GRVDWLQRNANFYDWFVA [S250] came in with a Kd of 8900 nM. The Kd values of the last two molecules are within 1.5-fold of each other.

On to GRVDWLQRNANFYDWFVAE [S249], for which the Kd is 740 nM. As for B7, the figure is 1600 nM; as for QSDSGTVHDRFYGWFRDTWAS [S179], 540 nM. LDRQFYRYFQDLLVGFM [S260] displayed a Kd of 2300 nM. Regarding LQRNANFYDWFVAELG [S238], the Kd stood at 850 nM.

For the molecule D[Aic′]D[Aib]EFYDWFDE[dI]P[dQ] [S319], the Kd was 870 nM. The molecule GRVDWLQRNANFYDWFV [S251] yielded a Kd of 5600 nM.

In turn, B8 showed a Kd of 700 nM. Then B9, with 1600 nM. Consider EHWNTVDPFYQYFSELLRESG [S178], for which the Kd is 130 nM.

For [Ac6c]CLEEWGASL[Tic]QCSG (cysteine pairing not given here) [S256], the Kd is 9000 nM. Compared with the last molecule, the Kd is about 69-fold higher. Then B10, with 640 nM. Then RVDWLQRNANFYDWFVAELG [S234], with 130 nM; and B11, with 990 nM. For EWRD[Hyp]FYDWFDE[dI][Hyp][dE] (printed: EWRD-Hyp-FYDWFDEi-Hyp-e) [S322], binding was put at a Kd of 720 nM. Regarding TGHRLGLDEQFYWWFRDALSG [S265], the Kd turned out to be 110 nM. Against the preceding molecule, the Kd is about 6.5-fold lower. Turning to GRVDWLQRNANFYDWFVAEL [S248], the Kd is 63 nM. QSFYDYIEELLGGEWKK [S288]: the Kd was determined as 4300 nM. Molecule B12 showed a Kd of 750 nM.

The molecule B13 showed a Kd of 2700 nM.

In turn, QLEEEWAGVQCEVYGRECPS [S226] returned a Kd of 1600 nM. Then NANFYDWFVAELG [S241], with 1600 nM. Then B14, with 2200 nM; and SDGFYNA[Ac6c]ELLSG (printed: SDGFYNA-Acy-ELLSG) [S302], with 860 nM; and QAPSNFYDWFVREWDEE [S287], with 5900 nM.

The molecule N[Aib]PFYDE[Ac6c]DE[Cha]W[Aib]G (printed: N-Aib-PFYDE-Acy-DE-Cha-W-Aib-G) [S305] registered a Kd of 840 nM. Compared with the last molecule, the Kd is about 7-fold lower. Then B15, with 120 nM.

Take ANFYDWFVAELG [S242]: binding was put at a Kd of 2000 nM.

B16 registered a dissociation constant (Kd) of 260 nM. B17 showed a Kd of 470 nM.

Turning to DWLQRNANFYDWFVAELG [S236], the affinity, expressed as Kd, was 100 nM. As for RWPNFYGYFESLLTHFS [S257], the figure is 14000 nM; as for DLWFNAKEDMNFYDWFVWQLR [S342], 1800 nM.

With DWLQRNANFYDWFVAELX (C-terminal Lig′) [S294], the affinity, expressed as Kd, was 130 nM. For the molecule B18, the Kd stood at 270 nM. In the case of GIISQSCPESFYDWFAGQVSDPWWC[dW] (cysteine pairing not given here, also called G33; H2CA-4-G9-IGFR) [S326], binding was characterised by a dissociation constant (Kd) of 590 nM. This Kd lies about 2.2-fold higher than the previous one.

In turn, WQGYAWLS [S316] came in with a Kd of 7000 nM. As for PLCFLQELFGGASLGGYCSG [S262], the figure is 19000 nM; as for B19, 900 nM; as for WLQRNANFYDWFVAELG [S237], 850 nM. As for SGPFYEE[Ac6c]ELLW[Aib]G (printed: SGPFYEE-Acy-ELLW-Aib-G) [S303], the figure is 5700 nM; as for VDWLQRNANFYDWFVAELG [S235], 53 nM; as for B20, 98 nM. As for RMYFSTGAPQNFYDWFVQEWD [S365], the figure is 10000 nM. Molecule B21 displayed a Kd of 39 nM. This Kd is about 260-fold lower than that of the molecule before.

The molecule GRVDWLQRNANFYDWFVAE[Ac6c]G [S306] came in with a Kd of 2200 nM.
